# Results taken from the nanobody polyreactivity screen of Harvey et al. (2022).
# Assay: yeast display, Sf9 membrane polyspecificity reagent, FACS + sequencing; frameworks hold sequencing errors
# Outline: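 Polyreactivity labels are assigned by the sorting gate from which each nanobody was recovered. The gates were low and high (top ~1%), set on anti-HA fluorescence for expression and streptavidin fluorescence for reagent binding. Before sorting, galactose-induced (36–48 hours) yeast display cells were stained for 1 hour at 4 °C with 10% biotinylated, detergent-solubilized Sf9 membrane reagent.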
row,Sequence,polyreactivity (PSR sort gate)
1,QVQLVESRGGLVQAGGSLRLSCAASGSIFLYYARGWYIQAPGKERELDAAISISGGRTYYADSVKGRFTISRDNSKNTVYIQMNSLKPEDTAVYYCATKGYTGYAYRYGYWGQGTQVTVSS,high polyreactivity
2,QVQLVESGGGLVQAGGSLRLSCAASGNIFVTYDMGWYRQAPGKEREMVASISWNGGSTHYADSVKGLFTISGDNAKYSVYLQMNSRKPEDTAVYYCAAEYWTSYADYRYDYWGQGTQVTVSS,low polyreactivity
3,QVQLVESGGGLVQAGGSLRLSCAASGSISYPKAMGWYRQAPGKERELVAAINSGDRTNYADSVKGRFTISRDNAKNTVYLQMNSLKPEDTAVYYCARRRYFLWGGYGYWGQGTQVTVSS,low polyreactivity
4,QVQLVESGGGLVQAGGSLRLSCAASGIIFQSYTMGWYRQAPGKVRELVAAIDSGGSTYYADSVKGRFTISRDNAKNTVYLQMNSLKPEDTAVYYCAAEPDTYWYTYDYWGQGTQVTVSS,low polyreactivity
5,QVQLVESGGGLVQAGGILRLSCAASGRTFSVNAMGWYRQAPGKERELVAAITRRGGSTYYADSVKGRFTISRDYAKNTVYLQMKSLKPEDTAVYYCAAEFVTYYSSSKRAYYYWGQGTQVTVSS,high polyreactivity
6,QVQLVESGVGLVHAGGSLRLSCAASGITFDHYTMGWYRQAPGKEREFVAAITGSGVRTYYADSVKVRFTISRDNAKNTVYLQMNSLKPEVTAVYYCAAVWRYTGKYWGQGTQVTISS,high polyreactivity
7,QVQLVESGGGLVQAGGSLRLTCAASGYIFYTYAMGWYRQAPGKERELVAGITGSGGSTYYADSVKGRFTISRDNAKNTVYLQMNSLKPEDTAVYYCAKDIYQIGYRRYDSWGQGTQVTVSS,low polyreactivity
8,QVQIVESGGGLVQAGGSLRLSCAASGFIFRYNVMGWYRQAPAKERELVAANSSSGSRTYYADSVKGRFTISRDNAKNTVYLQMNSLKPEDTAVYYCATQSWVRYGQPEFDYWGHGTQVTVSS,high polyreactivity
9,QVQLVESGGGLVQAGGSLRLSCAASGRLFNEYAMGWYRQAAGNVRALVAGITWSGGSTSYADSVKGRFTISRDYAKNTVYLQMIILKPEDTAVYYCAADVYRRLRRYRYFYWGQGTQVTVSS,low polyreactivity
10,QVQLVESGGGLVQAGGSLRLSCPASGRILPRNAMGWYRQAPGKERELVAGISSDGSTNYADSVKGRFTISRDNAKNTVYLQMNSLKPEDTAVYYCAADGVYDPNLYGYWGQGTQVTVSS,low polyreactivity
11,QVQLVESGGGLVQAGGSLRLSCAASGFTFAYNAMGWYRPAPGKERELVAAISGRGVSTYYADSVKGRFTISRDNAKNTVYLQMNSLKPEDTAVYYCAKRYRYWTTERYDYWGQGTQVTVSS,high polyreactivity
12,QVQLVESGGGLVQAGGSLRLSCAASGRTFYPNAMGWYRQAPRKERELVADITYSGASTYYADSVKGRFTISRDNAKNSVFLQMNSLKPEDTAVYYCNADESGVLVYVPYDYLGQGTQVTVSS,low polyreactivity
13,QVQLVESGGGLVQAGGSLRLSCAASGSTFVSYAMGWYRQAPGKERDFVAAITWSGGSTYYADSVKGRFTISRDNAKNTVYLQMNSLKPEDTAVYYCNARTGRSPTGFRYWGQGTQVTVSS,high polyreactivity
14,QVQLVESGGGLVQAGGSLRLSCAASGSTLDYNAMGWYRQATGKERELVAAINWSGGRTYYADSVKGRFTISRDNAKNTVYLQMNSLKPEDTAVYFCAAVDYKAKGYGYWGQGTQVTVSS,high polyreactivity
15,QVQLVESGGGLVQAGGSLRFSCAGSGSTFRNYAMGWYRQAPGQERAFVATISSAGGTTYYADSVKGRFTISRDKAKNTLYVQMNSLNPEDTAVYYCAADQHSYRYGGYYYWGQGTQVTVSS,low polyreactivity
16,QVQLVESGGGLVQAGGSLRLSCAASGMIFADYVMGWYRQAPGKERELVATINQGGGSTYYADSVKGRFTISRDNAKNTVYLQMNSLKPEDTAVYYCAATWALLYAIFESYDYWGQGTQVTVSS,low polyreactivity
17,QVQLVESGGGLVQAGGSLRLSCAASGSTFYIYAMGWYRQAPGKERELVAAISWRGGRTYYADSVKGRFTISRDNAKNTVYLQMNSLKPEDTAVYYCAAAYLRWSGTYYYVDGYDYWGQGTQVTVSS,high polyreactivity
18,QVQLVESGGGLVQAGGSLRLSCAASGYTFSFYAMGWYRQAPGKERELVATISWRGGSTYYADSVKGRFTISRDNAKNTVYLQMNSLKPEDTAVYYCNIVDKTGSKMDYWGQGTQVTVSS,high polyreactivity
19,QDQHVESGGGLVQAGGSLRLSCAASGSNFDVYAMGWYRQAPGKERELVATISYGDSSTYYADSVKGRFTISRDNAKNTVYLQMNSLKPEDTAVYYCAADYLTAPRWRQWGVMDYWGQGTLVTVSS,low polyreactivity
20,QVQLVESGGGLVQAGGSLRLSCAASGRTFGGNAMGWYRQAPGKERELVATIRSSSSTNYADSVKGRFTISRDNAKNTVYLQMNSLKPEDTAVYYCARRSQRGIYSMYYWGQGSQVTVSS,low polyreactivity
21,QVQLVESGGGLVQAGGSLRLSCAASGRIFNLYDMGWYRQAPGKERELVAAITTGGDTTNYADSVKGRFTISRDNAKNTVYLQMNSLKPEDTAVYYCAADDGWIEPVYGYYEHEYWGQGTQVTVSS,low polyreactivity
22,QVQLVESGGGLVQAGGSLRLSCAASGRTFQKNTMGWYRQPPGKERELVAAIDYSATTTYYADSVKGRFTSSRDTAKNTVYLQMNSLKPEDTAVYYCAARWSYPRWEFDYWGQGTQVTVTS,high polyreactivity

row,Sequence,polyreactivity (PSR sort gate)
1,QVKLVESGGGLVQAGGSLRLSCAASGRICLSYTMGWYRQAPGKERELVATIDSGVSTNYADSVKGRFTITRDNAKNTVYVQMNSLKPEDTAVYYGNADGFYSSHGYDYWGQGTQVTVSS,low polyreactivity
2,QVQLVESGGGLVQAGGSLRLSCAASGCTFGTYAMGWYRQAPGKERELVAAITDSTGNTYYADSVKGRFTISRDNAKNTVYLQMNSLKPEDTAVYYCALEYVYDYFWMDYWGQATQVTVSS,high polyreactivity
3,QVQLVESGGGLVQAGGSLRLSCAASGFTFSRNDMGWYRQAPGKERELLASITTSGGGTYYADSVKGRFTISRDNAKNTVYLQMNSLKPEDTAVYYCAKDWFPWAGYYDFGYWGQGTQVTVSS,low polyreactivity
4,QVQLVESGGGLVQAGGSLRLSCAASGSTFNRYVMGWYRQAPGKERELVAANGGRTYYADSVKGRFTISRDNAKNTVYLQMNSLKPEDTAVYYCNARSYKHPYYRFDYWGQGTQVTVSS,high polyreactivity
5,QVQLGESGGGLVQAGGSLRLSCAASGSIFGHYAMGWYRQAPGKERELVAAISWSGTSTYYADSVKGRFTISRDNAKNTVYFQMNTLKPEDTAVYYCNVVYRVVSPSGGGYWGQGTQVTVSS,high polyreactivity
6,QVQLVESGGGLVQAGGSLRLRCAASGRTFWVNAMGCDRQAPGTERELVAGITFRGGSTDYADSVKGRFTISRDNAQNTVYLQMNRLKPEDTAVDDCAARVYRYGAMDYWGQGTQVTVSS,high polyreactivity
7,QVQLVVSGVGLVQAGGSLRLSCAASGRIFSYYAMGWYRQAPGKEREFVATNSGSGGSTYYADSVKGRFTISRDNAKNTVYLEMNSLKPEDTAVYYCKARSYSYWSNWRNAGSYDYWGQGTQVTVSS,high polyreactivity
8,QVQLVESGGGLVQAGGSLRLSCAASGFTFRTNVMGWYRQAPGKERELVASISSTGSTNYADSVKGRFTISRDNAKNTVYLQMNSLKPEDTAVYYCARRYRYRYNYWGQGTQVTVSS,high polyreactivity
9,QVQLVESGGGLVQAGGSLRLSCAASGRIFGRDMGWYRQAPGKERELVATITWRGGSTYYADSVKGRFTISRDNAKNTVYLQMNSLKPEDTAVYYCTAALSHDYWHYRLGYWGQGTQVTVSS,low polyreactivity
10,QLQLVESAVGLDQAVDILRLSSAASGFIFPGNMGWYRKAPGKETELVAAISWSGGSTRYADSVKGRFTISRDNAKNTVYLQMNSLKPEDTAVYYCAASLSGKRFNKRYYWGQGTQVTVSS,high polyreactivity
11,QVQLVESGGGLVQAGGSLRLSCAASGRIFIKNAMGWNRQAPGKERELVAAISDSGDSTYYADSVKGRFTISRDNAKNSVYLQMNSLKPEDTAVYYCAADGADHRSEMYYWGQGTQVTVSS,low polyreactivity
12,QDQLVESGGGLVQAGGSLRLSCAASVRTCNSYAMGWYRQAPGKERELVADITSSGGSTYYADSVKGRVTISRDNAKNTVYVQMNSLKPEDTAVYYCAADGYTRLPTYLRVTHRSLDYCGQGTQVTVSS,low polyreactivity
13,QVQLVESGGGLVQAGGSLLLSCAASGRTFGYYAMGWYRQAPGKETELVAAISSGGGTYYADSVKGRFTISRDNAKNTVYLQMNSLKPEDTAVYYCAATGWVYWGQFDYWGQGTQVTVSS,low polyreactivity
14,QVQHVESGGGLVQAGGSLRLSCAASGRTFTFNAMGWYRPAPGKERELVARIDWRGITYADSVKGRFTISRDNAKNTVYLQMNSLKPEDTAVYDCAAVWLHISYYGKYDYWGQGTQVTVSS,low polyreactivity
15,QVQLVESGGGLVQAGGSLRLSCAASGSIFWYAMGWYRQAPGKETELVAAISRGGSTYYADSVKGRFTISRDNAKNTVFLEMYRLKPEDTAVYYCATAYRYPRNAYFQRMDSWGQGTQVTVSS,high polyreactivity
16,QVQLVESGGGLVQAGGSLRLSCAASGRTLRSYAMGWYRQAPGKERELVAAITRTGGDTYYADSVKGRFTISRDNANNTLYLQMNSLKPEDTAVYYCAAQRYRGYDYWGQGTQVTVSS,high polyreactivity
17,QVKLVESAGGLVQAGASLRLSCAPSGITFKRYAMGWSSQQPGKQSELVAAITSGGSTHYADSVKGRFTISRDNAKNTVYLQMNTLKPEDTAVYYCATRRYKWGVRYDYWGQGTQVTVSS,high polyreactivity
18,QVQLVESGGGLVQAGGSLRLSCAASGRMFGRYVMGWYRQAAGKERELVASISTRGGRTYYADSVKGRFTISRDIAKNTVYLQMNSLKPEDTAVYYCAVVYPRFGAYDYWGQCTQVTVSS,high polyreactivity
19,QVQLVESGGGLVQAGGSLRLSCAASGRIFSVYTMGWYRQAPGKERELVAGISRGGSTDYADSVKGRFTISRDNAKNTVYLQMNSLKPEDTAVYYCAATYTYRWYQFNFWGQGTQVTVSS,high polyreactivity
20,QVQLVESGGGIVQAGGSLRLSCAASGSTLYLYVMGWYRQAPGKERELVAVISSSSGRTYYADSVKGRFTISRDNAKNTVYLQMNSLKPEDTAVYYCAADNYVGYHWYNYWGQGTQVTVSS,high polyreactivity
21,QVQLVESGGGLVQAGGSLRLSCAASGRIVSHYAMGWYRQAPGKERELVAAISRSGSTYYADSVKGRFTISRDNAKNTVYLQMNSLKPEDTAVYYCATRLYTVGPYGYWGQGTQVTVSS,low polyreactivity
